Measurements taken from patent US20020099172A1.

Target: Xwnt-8 (Xenopus) (UniProt P28026)
Assay: cell-based or functional assay

UniProt P28026, sequence (P28026 23-358 limits assumed): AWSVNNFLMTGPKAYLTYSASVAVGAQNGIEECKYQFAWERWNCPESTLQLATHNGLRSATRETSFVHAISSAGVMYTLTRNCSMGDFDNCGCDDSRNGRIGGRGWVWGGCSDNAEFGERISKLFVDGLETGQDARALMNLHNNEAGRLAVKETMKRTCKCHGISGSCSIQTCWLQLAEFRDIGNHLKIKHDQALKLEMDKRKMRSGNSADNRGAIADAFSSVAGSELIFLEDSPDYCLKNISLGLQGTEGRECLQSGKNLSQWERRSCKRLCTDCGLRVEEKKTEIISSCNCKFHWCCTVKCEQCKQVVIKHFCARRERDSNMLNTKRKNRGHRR

## frzb-1 (Xenopus, expressed from injected mRNA)
  embryos with secondary axes after injection of frzb-1 mRNA (animal blastomeres) and Xwnt-8 mRNA (vegetal-ventral blastomere); Xwnt-8 alone gave complete secondary axes in 67% of the embryos (n=53): 14%
